The text below walks through data of publication PMC2569942.

By stoichiometry N is commonly meant a count of units in the complex or per binding partner.

This assay has as its target prophagic Cu,Zn superoxide dismutase SodC-F1 of E. coli O157:H7 (soluble recombinant mature enzyme from pO157-ΔCys) (E. coli O157:H7 EDL933). Kind of assay: SEC. (Size exclusion chromatography separates by hydrodynamic size, large species first.)

With “prophagic Cu,Zn superoxide dismutase SodC-F1 of E. coli O157:H7 (soluble recombinant mature enzyme from pO157-ΔCys)”, the stoichiometry N came out at 2.
